In article PMC5758567 (2018):

Tests used:
[1] = biological target: T1, PDE6 (higher-affinity site) (Bos taurus, UniProt P11541); assay: activity titration
T1 chain 1: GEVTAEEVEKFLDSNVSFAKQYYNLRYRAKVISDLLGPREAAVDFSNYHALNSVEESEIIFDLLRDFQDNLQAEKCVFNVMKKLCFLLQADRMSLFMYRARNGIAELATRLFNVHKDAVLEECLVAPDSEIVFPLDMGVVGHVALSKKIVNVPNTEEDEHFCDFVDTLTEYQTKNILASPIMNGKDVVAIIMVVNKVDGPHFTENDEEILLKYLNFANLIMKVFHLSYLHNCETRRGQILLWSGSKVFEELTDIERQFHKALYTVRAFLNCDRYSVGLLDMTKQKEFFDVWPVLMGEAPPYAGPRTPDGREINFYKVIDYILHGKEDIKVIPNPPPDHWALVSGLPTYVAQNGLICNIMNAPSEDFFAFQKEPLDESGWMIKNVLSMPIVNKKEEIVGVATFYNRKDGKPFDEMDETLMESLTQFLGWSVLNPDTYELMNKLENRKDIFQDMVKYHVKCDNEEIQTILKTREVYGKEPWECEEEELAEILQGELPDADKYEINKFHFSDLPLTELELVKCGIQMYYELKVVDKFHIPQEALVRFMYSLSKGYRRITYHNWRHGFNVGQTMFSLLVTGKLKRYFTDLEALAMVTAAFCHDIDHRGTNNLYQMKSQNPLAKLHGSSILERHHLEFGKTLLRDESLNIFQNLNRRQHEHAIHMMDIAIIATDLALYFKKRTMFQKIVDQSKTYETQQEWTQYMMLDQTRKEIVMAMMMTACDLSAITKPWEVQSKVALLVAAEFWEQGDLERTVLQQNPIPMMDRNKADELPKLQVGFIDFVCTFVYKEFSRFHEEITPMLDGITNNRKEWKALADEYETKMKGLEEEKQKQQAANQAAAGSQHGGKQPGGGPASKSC
T1 chain 2: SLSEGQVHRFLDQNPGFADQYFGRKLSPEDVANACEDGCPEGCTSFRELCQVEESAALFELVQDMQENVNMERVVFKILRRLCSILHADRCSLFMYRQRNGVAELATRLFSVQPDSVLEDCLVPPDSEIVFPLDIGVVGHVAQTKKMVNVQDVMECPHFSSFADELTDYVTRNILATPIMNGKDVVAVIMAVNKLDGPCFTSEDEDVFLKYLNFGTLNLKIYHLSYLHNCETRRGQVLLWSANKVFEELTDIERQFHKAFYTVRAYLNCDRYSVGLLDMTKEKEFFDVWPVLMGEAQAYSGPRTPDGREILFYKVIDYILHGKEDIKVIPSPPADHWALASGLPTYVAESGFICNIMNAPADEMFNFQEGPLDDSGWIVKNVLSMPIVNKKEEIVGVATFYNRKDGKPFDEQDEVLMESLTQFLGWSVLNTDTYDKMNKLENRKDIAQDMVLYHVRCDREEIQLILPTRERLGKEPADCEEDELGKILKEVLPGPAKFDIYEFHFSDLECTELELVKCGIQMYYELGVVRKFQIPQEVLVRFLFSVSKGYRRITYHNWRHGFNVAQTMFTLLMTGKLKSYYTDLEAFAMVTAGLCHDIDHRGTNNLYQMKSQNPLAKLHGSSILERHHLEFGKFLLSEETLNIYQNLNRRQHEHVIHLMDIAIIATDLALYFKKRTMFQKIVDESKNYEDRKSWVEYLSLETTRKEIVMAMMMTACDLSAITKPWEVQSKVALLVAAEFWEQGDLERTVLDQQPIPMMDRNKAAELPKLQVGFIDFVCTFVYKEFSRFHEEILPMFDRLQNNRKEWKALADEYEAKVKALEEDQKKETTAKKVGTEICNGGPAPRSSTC

[2] = biological target: T2, PDE6 (lower-affinity site) (Bos taurus, UniProt P11541); assay: activity titration
T2 chain 1: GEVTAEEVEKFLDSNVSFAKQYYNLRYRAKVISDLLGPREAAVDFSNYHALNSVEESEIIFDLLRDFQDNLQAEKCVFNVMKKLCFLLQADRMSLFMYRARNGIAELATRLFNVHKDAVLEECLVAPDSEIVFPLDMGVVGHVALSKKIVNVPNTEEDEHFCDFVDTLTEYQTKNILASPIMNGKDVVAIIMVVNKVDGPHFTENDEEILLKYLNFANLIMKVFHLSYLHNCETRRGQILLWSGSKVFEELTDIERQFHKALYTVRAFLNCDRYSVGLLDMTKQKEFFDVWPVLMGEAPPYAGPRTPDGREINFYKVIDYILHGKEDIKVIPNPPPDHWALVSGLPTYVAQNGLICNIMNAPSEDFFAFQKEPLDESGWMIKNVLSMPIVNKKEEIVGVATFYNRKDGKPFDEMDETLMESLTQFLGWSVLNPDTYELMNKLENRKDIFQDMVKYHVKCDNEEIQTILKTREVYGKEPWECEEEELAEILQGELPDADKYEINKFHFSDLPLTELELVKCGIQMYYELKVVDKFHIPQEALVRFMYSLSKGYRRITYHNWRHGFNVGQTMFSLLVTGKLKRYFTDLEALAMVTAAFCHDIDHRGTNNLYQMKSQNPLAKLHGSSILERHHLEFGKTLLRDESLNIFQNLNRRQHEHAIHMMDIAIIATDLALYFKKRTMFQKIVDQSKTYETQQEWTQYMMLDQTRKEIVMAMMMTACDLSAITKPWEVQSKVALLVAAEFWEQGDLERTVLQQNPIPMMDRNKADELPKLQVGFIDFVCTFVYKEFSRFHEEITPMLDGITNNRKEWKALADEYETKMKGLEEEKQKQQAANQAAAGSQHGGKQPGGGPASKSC
T2 chain 2: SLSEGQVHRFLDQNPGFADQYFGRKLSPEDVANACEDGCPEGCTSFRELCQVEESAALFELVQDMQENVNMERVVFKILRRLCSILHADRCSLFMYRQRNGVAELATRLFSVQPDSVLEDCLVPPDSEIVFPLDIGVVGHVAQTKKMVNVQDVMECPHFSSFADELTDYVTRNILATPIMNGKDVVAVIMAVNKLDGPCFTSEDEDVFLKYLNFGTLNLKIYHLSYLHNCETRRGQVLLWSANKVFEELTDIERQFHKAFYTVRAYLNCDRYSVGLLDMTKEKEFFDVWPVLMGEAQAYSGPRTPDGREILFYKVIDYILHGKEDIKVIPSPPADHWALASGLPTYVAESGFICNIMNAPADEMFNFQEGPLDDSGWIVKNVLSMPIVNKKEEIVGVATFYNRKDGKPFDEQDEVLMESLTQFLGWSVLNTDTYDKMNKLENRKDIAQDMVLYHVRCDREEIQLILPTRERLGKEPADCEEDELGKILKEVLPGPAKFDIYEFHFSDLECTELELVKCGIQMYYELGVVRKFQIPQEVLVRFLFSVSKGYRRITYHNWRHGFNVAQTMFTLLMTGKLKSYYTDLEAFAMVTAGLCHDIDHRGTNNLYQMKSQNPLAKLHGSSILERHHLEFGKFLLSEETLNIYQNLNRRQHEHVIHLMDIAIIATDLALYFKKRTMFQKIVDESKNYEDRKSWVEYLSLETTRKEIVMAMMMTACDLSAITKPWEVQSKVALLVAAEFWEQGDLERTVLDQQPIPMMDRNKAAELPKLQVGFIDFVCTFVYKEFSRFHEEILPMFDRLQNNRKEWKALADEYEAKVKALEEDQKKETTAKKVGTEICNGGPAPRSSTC

B1: PrBP/δ (protein)
chain: MSAKDERAREILRGFKLNWMNLRDAETGKILWQGTEDLSVPGVEHEARVPKKILKCKAVSRELNFSSTEQMEKFRLEQKVYFKGQCLEEWFFEFGFVIPNSTNTWQSLIEAAPESQMMPASVLTGNVIIETKFFDDDLLVSTSRVRLFYV
Q: With B1 as the binder, how does the Kd [1] read?
A: 40 nM

Q: What about the Kd [2] of the same binder?
A: 700 nM
